# From the supplement of paper PMC9170038
# Tested on: MS2 coat protein
# Experiment: apparent KD of MS2 coat protein; designed switch direction (-1 OFF switch, 1 ON switch): 1; higher = weaker reporter binding
# In short: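 The apparent KD reported per design is the median over clusters of curve fits to normalised cluster fluorescence. The RNA switches were transcribed on Illumina chips by stalled E. coli RNA polymerase. SNAP-549-labelled MS2 coat protein was titrated from 0.7 or 1.5 nM, doubling up to 3 µM, in Tris-HCl pH 7.5 buffer containing KCl, MgCl2, BSA, DTT, tRNA and Tween-20, with no input, 200 uM small-molecule ligand, or an oligonucleotide input.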
# [1] = Eterna round: R95, input ligand: FMN 200 uM
# [2] = Eterna round: R95, input ligand: microRNA oligo, concentration not stated
# [3] = Eterna round: R95, input ligand: none
# [4] = input ligand: microRNA oligo, concentration not stated
Sequence,apparent KD of MS2 coat protein [1] [nM],apparent KD of MS2 coat protein [2] [nM],apparent KD of MS2 coat protein [3] [nM],apparent KD of MS2 coat protein (input ligand: FMN 200 uM) [nM],apparent KD of MS2 coat protein [4] [nM],apparent KD of MS2 coat protein (input ligand: none) [nM]
UAUGAACAUGAGGAUCACCCAUGUGGAAAAGACACAGGAUAUCAUCCCGGACGUGCGAGAUGAGAAGGGUGAUGGU [Edrive] (puzzle: Same State 1),267,205,367,–,–,–
UAUGAACAUGAGGAUCACCCAUGUGGUAAGAUCACAGGAUAUCACCUCGGACGUGCGAUGUGAGAAGGGUGAUGGU [Same State 1 - Mod of Vinnie Anrelari v.2] (puzzle: Same State 1),–,419,–,–,–,–
"UAUGAAUUGCAAGGAUAUUGAUAACAUGAGGAUCACCCAUGUAAUUGAUCGAGUUAGAUCAGUUACAAGAAGGUGCUAUUGUUU [JR_SSNG2_Sub037] (Eterna round: R96, puzzle: Same State NG 2)",–,–,–,1810,33.2,70
"UAUGACUUACAAGGAUAUUAAUAACAUGAGGAUCACCCAUGUGGCUGUGUGUGUUAGAUAAGCUAUAAGAAGGUGUGUGUGUUU [JR_SSNG2_Sub095] (Eterna round: R96, puzzle: Same State NG 2)",–,–,–,66.2,244,223
"UAUGAUGCCGUAGGAUAUCUAGGAUAUGGACGAGGAUCACCCGAGCAGCAUCAGCGCACCAGAGGAGAGAAGGACGCUUUGGAA [pwkr ssNG2 2F5 2FMN.22] (Eterna round: R96, puzzle: Same State NG 2)",–,–,–,477,658,486
"UAUUAAUCUGUAGGAUAUGUAGGAUAUGGACGAGGAUCACCCGAGCAGCAUCAGCGCACCAGAGGACAGAAGGACGGCCGGGUG [pwkr ssNG2 2F5 2FMN.24] (Eterna round: R96, puzzle: Same State NG 2)",–,–,–,1670,411,177
"UAUUUAAUCAUAGGAUAUAGUGUGUAAUUUGGACUAGAAGGAUGAAACAUGAGGAUCACCCAUGUGGUAAAUGGGAUACAUUCC [JR_SSNG1_Sub100] (Eterna round: R96, puzzle: Same State NG 1)",–,–,–,–,59.8,–
UCAAGCGAAAGGCUCGUCUUAUGCAAGAAACAUGAGGAUCACCCAUGUGAGGGACGAUUGAGUUAGAUGGAAUGGAA [JR_SHM208A_Sub031] (puzzle: Sensor for hsa-mir-208a),24.7,66.6,25,–,–,–
"UCAAUCAUGUAAGGAUAUGCAGCCGAAACGGCUGCAGAAGGUACUAUAAUUACAUGAGGAUCACCCAUGUUAUAAAAUUUAUAU [Mat - Same State NG 1 - JL mod - D67] (Eterna round: R96, puzzle: Same State NG 1)",–,–,–,–,85,–
"UCGAGCGUACUUGCAGACAUGAGGAUCACCCAUGUAAAUGGGAAGGAUAUGGUACCGUUUCGGUACCAGAAGGUCCUAAGUGAU [salish99_SSNG3_r04_302] (Eterna round: R96, puzzle: Same State NG 3)",–,–,–,574,465,1200
"UCGGGCGUACUUGCUGACAUGAGGAUCACCCAUGUGAUUGGGAAGGAUAUGGUUCCGUUUCGGUUCCAGAAGGUCCUGGGUGCU [salish99_SSNG3_r04_313] (Eterna round: R96, puzzle: Same State NG 3)",–,–,–,482,459,370
"UCGGGCGUACUUGCUGACAUGAGGAUCACCCAUGUGAUUGGGCAGGAUAUGGUUCCGUUUCGGUUCCAGAAGGUCCUCGGUGCU [salish99_SSNG3_r04_315] (Eterna round: R96, puzzle: Same State NG 3)",–,–,–,593,230,347
"UCGGGCGUACUUGCUGACAUGAGGAUCACCCAUGUGUUUGGGAAGGAUAUGGUUCCGUUUCGGUUCCAGAAGGUCCUGGGUGCU [salish99_SSNG3_r04_314] (Eterna round: R96, puzzle: Same State NG 3)",–,–,–,337,254,246
"UCUAUUGUGGUAGGAUAUCUAGGAUAUGGGAAGAGCUAAGCUUGGAAGUCACUUCACCCAGAAGGAGAGAAGGACCAGAGACUU [pwkr ssNG2 2FMN + F9.7] (Eterna round: R96, puzzle: Same State NG 2)",–,–,–,1230,778,475
"UCUGCAAGAACAGGAUAUGGGUUCAGAGCGCGAGUGCGCUUUGACACAUGAGGAUCACCCAUGUCCCAGAAGGGUUCAAGCGGC [Cexezadi] (Eterna round: R96, puzzle: Same State NG 2)",–,–,–,30,321,385
UCUUGGUUUUUGCUCGUUUUUUGUGUUGAACAUGAGGAUCACCCAUGUAUUGUACAAUCCAGUUUGAUAAUGGUCCG [JR_SHM208A_Sub045] (puzzle: Sensor for hsa-mir-208a),140,112,167,–,–,–

Sequence,apparent KD of MS2 coat protein [1] [nM],apparent KD of MS2 coat protein [2] [nM],apparent KD of MS2 coat protein [3] [nM],apparent KD of MS2 coat protein (input ligand: FMN 200 uM) [nM],apparent KD of MS2 coat protein [4] [nM],apparent KD of MS2 coat protein (input ligand: none) [nM]
UCUUGGUUUUUGCUCGUUUUUUGUGUUGAACAUGAGGAUCACCCAUGUAUUGUACAGUCCAGUUUAAUAAUGGUCCA [JMF 5] (puzzle: Sensor for hsa-mir-208a),33.9,24.6,48.8,–,–,–
UCUUGGUUUUUGCUCGUUUUUUGUGUUGAACAUGAGGAUCACCCAUGUAUUGUACGGUCCAAUUUAAUAAUAAUCCG [JMF 64] (puzzle: Sensor for hsa-mir-208a),28.8,21.9,30.6,–,–,–
UCUUGGUUUUUGCUCGUUUUUUGUGUUGAACAUGAGGAUCACCCAUGUAUUGUACGGUCCAAUUUAAUAAUGGUCCA [JMF 37] (puzzle: Sensor for hsa-mir-208a),28.9,15.7,26.7,–,–,–
UCUUGGUUUUUGCUCGUUUUUUGUGUUGAACAUGAGGAUCACCCAUGUAUUGUACGGUCCAGUUUGGUAAUGGUCCG [JMF 35] (puzzle: Sensor for hsa-mir-208a),25,14.9,26.4,–,–,–
UCUUGGUUUUUGCUCGUUUUUUGUGUUGAACAUGAGGAUCACCCAUGUAUUGUACGGUCCGAUUUAAUAAUGGUCCG [JMF 22] (puzzle: Sensor for hsa-mir-208a),23.5,14.4,25.5,–,–,–
UCUUGGUUUUUGCUCGUUUUUUGUGUUGAACAUGAGGAUCACCCAUGUAUUGUACGGUCCGGUUUAAUAAUGGUCCG [JMF 12] (puzzle: Sensor for hsa-mir-208a),25,14.7,26.3,–,–,–
UCUUGGUUUUUGCUCGUUUUUUGUGUUGAACAUGAGGAUCACCCAUGUAUUGUACGGUCCGGUUUAAUAGUGGUCCA [JMF 43] (puzzle: Sensor for hsa-mir-208a),95.4,59.8,105,–,–,–
UCUUGGUUUUUGCUCGUUUUUUGUGUUGAACAUGAGGAUCACCCAUGUAUUGUACGGUCCGGUUUAGUAGUGGUCCG [JMF 17] (puzzle: Sensor for hsa-mir-208a),25.7,16.6,30.4,–,–,–
UCUUGGUUUUUGCUCGUUUUUUGUGUUGAACAUGAGGAUCACCCAUGUAUUGUACGGUCCGGUUUGGUAGUGGUCCG [JMF 16] (puzzle: Sensor for hsa-mir-208a),41,29.4,53.6,–,–,–
"UGAACCUUCACAGGAUAUCAUGCGAAAAUUGCGUGAGAAGGGUGAAUGUGGUGUUCAUAGUUGCACAUGAGGAUCACCCAUGUA [SameState NG1 #52] (Eterna round: R96, puzzle: Same State NG 1)",–,–,–,107,135,156
"UGAAUAAUGUUAGGAUAUACAUGAGGAAUCCUCGUAGAAGGAACAUGACAUGAGGAUCACCCAUGUAGCGCUCAGAAGAGCGCA [Mat - Same State NG 1 - JL mod - D50] (Eterna round: R96, puzzle: Same State NG 1)",–,–,–,–,73.4,–
"UGAAUAGUGAUAGGAUAUACAUGAGGAAUCCUCGUAGAAGGAUCACGACAUGAGGAUCACCCAUGUAGCCGUCAGAAGACGGCA [Mat - Same State NG 1 - JL mod - D60] (Eterna round: R96, puzzle: Same State NG 1)",–,–,–,450,345,2610
"UGAAUAGUUACAGGAUAUGAGCCGUAAAUUGGGUCAGAAGGGUGGGUGUUCUGCGCGGUGUGUUACAUGAGGAUCACCCAUGUU [SameState NG1 #30] (Eterna round: R96, puzzle: Same State NG 1)",–,–,–,245,99.8,244
"UGAAUAGUUACAGGAUAUGAGUUGUAAAUUGGGUCAGAAGGGUGGGUGUUCUGCGCGGUGUGUUACAUGAGGAUCACCCAUGUU [SameState NG1 #29] (Eterna round: R96, puzzle: Same State NG 1)",–,–,–,504,182,377
"UGAAUAGUUACAGGAUAUGAGUUGUAAAUUGGGUCAGAAGGGUGGGUGUUUUGCGCGGUGUGUUACAUGAGGAUCACCCAUGUU [SameState NG1 #28] (Eterna round: R96, puzzle: Same State NG 1)",–,–,–,81.8,75.1,122
"UGAAUGGUGAUAGGAUAUACAUGAGGAAUCCUCGUAGAAGGAUCACGACAUGAGGAUCACCCAUGUAGCCGUCCGUAGACGGCC [salish99_SSNG1_r04_002] (Eterna round: R96, puzzle: Same State NG 1)",–,–,–,–,89.6,–
